{"source": "paper PMC2895429", "biological_target": "cardiac ryanodine receptor (RyR2) in permeabilized rat ventricular myocytes (rat (endogenous in ventricular myocytes)) (UniProt B0LPN4)", "sequence (B0LPN4 whole entry)": "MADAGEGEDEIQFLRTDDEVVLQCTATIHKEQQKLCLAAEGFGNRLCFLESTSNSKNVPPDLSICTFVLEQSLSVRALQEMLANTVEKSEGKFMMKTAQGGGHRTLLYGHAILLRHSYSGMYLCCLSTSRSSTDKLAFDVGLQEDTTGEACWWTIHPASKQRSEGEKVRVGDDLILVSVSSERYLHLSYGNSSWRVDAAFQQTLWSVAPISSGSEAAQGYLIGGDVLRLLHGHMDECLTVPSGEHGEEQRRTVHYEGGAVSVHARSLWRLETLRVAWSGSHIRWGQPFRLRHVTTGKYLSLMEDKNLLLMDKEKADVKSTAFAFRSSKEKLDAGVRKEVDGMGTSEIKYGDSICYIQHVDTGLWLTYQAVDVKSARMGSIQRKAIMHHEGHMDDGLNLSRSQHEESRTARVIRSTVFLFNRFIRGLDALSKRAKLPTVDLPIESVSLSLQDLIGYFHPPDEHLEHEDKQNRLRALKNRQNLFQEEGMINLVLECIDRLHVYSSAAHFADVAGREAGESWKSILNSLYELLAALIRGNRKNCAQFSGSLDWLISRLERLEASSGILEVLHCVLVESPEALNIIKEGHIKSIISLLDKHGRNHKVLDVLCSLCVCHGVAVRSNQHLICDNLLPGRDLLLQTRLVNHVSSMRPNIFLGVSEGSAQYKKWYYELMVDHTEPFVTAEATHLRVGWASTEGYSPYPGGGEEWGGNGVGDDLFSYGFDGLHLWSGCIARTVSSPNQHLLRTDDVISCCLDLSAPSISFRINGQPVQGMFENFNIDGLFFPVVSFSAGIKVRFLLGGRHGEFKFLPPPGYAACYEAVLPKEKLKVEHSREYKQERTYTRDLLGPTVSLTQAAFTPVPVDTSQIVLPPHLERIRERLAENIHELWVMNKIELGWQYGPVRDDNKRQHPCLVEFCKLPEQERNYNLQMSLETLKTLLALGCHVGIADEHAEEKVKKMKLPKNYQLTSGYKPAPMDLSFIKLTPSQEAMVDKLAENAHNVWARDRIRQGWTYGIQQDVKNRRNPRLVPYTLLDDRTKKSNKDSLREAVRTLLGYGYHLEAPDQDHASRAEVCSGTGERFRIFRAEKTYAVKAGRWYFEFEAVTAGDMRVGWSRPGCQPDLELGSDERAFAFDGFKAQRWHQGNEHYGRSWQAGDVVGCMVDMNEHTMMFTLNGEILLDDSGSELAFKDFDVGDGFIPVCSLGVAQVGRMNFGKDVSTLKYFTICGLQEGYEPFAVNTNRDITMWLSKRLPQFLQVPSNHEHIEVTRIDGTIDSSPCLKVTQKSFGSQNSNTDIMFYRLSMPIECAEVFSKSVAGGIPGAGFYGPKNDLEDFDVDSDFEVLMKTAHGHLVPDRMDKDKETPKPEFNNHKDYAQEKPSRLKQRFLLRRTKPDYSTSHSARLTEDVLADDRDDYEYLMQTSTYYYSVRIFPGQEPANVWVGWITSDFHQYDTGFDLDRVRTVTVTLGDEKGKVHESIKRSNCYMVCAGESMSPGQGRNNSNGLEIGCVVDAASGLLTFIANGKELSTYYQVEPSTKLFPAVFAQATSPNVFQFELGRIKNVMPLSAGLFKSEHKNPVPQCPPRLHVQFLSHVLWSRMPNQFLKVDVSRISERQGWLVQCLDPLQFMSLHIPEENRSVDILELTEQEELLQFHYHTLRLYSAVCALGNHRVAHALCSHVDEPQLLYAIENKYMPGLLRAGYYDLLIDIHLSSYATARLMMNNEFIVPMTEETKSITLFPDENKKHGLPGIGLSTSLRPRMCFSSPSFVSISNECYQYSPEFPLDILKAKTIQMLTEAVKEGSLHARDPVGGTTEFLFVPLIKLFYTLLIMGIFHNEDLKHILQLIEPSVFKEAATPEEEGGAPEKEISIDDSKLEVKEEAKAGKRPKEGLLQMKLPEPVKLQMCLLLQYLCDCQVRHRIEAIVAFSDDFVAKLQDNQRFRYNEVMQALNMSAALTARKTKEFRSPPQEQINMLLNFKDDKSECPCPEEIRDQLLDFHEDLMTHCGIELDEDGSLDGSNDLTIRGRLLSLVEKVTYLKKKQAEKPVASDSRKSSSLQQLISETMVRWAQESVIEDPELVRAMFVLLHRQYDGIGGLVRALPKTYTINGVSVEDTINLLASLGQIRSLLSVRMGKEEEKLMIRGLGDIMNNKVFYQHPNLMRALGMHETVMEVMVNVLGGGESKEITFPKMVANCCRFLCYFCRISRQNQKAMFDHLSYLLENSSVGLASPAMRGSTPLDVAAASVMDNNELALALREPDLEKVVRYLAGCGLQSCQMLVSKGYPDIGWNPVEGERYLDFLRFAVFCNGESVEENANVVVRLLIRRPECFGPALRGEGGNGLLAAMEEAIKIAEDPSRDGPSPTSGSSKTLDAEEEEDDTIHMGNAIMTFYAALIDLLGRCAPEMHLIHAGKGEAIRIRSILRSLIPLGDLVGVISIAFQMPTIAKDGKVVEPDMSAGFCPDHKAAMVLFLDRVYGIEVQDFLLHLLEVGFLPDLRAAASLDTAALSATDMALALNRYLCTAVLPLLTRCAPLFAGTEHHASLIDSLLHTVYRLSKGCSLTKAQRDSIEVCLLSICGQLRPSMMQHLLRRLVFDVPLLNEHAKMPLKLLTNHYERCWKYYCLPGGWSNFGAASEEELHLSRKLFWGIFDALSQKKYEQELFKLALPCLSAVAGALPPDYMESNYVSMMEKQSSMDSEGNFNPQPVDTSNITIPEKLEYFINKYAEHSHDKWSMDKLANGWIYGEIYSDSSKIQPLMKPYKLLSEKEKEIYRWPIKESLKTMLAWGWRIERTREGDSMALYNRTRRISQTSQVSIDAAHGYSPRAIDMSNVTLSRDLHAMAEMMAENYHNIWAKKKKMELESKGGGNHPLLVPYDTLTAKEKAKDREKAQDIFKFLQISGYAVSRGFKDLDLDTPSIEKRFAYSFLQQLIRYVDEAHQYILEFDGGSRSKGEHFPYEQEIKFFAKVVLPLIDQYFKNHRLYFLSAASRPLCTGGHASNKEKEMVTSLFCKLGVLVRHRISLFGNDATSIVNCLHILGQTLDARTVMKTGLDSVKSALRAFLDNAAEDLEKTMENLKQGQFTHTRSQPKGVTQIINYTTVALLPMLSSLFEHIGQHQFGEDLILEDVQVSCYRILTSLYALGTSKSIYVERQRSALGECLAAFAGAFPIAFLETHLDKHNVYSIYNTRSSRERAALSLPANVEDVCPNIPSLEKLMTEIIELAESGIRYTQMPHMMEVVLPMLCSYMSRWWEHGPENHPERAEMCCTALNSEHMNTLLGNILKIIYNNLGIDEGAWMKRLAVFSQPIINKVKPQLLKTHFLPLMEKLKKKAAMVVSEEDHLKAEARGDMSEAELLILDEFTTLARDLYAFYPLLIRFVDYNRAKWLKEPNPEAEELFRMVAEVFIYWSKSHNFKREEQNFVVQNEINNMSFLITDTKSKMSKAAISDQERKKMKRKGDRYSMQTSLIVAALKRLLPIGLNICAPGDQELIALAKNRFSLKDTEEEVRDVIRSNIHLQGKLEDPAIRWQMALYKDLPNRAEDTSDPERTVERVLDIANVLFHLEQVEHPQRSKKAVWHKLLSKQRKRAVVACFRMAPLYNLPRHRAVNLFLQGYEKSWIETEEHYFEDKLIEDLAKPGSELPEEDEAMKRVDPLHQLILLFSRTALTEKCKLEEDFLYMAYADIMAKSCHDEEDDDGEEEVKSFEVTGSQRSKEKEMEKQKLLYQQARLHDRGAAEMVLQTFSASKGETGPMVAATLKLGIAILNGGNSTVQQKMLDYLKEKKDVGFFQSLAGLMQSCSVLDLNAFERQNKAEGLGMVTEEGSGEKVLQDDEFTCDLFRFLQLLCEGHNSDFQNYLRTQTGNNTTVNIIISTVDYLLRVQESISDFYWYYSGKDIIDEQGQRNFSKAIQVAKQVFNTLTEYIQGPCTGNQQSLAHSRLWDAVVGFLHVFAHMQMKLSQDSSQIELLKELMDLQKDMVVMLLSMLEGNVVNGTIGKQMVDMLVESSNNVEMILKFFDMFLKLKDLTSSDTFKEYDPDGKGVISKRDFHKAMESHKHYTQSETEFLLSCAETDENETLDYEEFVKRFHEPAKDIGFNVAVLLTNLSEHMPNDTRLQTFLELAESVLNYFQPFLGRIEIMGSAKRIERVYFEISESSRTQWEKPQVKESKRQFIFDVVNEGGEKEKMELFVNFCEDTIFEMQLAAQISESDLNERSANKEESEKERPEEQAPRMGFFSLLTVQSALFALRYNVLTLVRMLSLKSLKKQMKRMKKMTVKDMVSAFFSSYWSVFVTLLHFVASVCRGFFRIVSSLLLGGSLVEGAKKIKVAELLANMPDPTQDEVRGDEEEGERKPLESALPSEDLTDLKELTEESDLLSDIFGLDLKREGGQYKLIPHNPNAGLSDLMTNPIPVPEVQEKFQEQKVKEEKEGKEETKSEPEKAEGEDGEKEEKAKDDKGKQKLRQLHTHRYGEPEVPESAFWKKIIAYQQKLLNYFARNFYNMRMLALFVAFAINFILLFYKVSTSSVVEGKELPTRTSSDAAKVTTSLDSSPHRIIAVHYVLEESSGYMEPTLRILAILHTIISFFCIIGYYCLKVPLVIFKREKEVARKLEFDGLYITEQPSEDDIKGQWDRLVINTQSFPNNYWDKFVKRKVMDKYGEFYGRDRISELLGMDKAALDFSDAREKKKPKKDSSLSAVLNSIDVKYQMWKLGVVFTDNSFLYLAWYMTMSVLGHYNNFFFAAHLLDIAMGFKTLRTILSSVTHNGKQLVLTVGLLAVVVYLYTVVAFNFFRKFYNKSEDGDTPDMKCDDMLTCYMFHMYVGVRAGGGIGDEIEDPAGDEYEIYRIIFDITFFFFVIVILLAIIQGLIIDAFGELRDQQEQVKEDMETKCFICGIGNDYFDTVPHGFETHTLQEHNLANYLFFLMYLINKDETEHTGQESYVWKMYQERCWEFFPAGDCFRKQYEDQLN", "data": [{"substance": "non-fluorescent wild type FKBP12.6 (from UniProt P68106 1-108) (natural protein)", "values": [{"measurement": "decrease in Ca spark amplitude in permeabilized rat myocytes", "result": 15, "unit": "%"}, {"measurement": "decrease in resting Ca spark frequency (CaSpF) in permeabilized rat myocytes", "result": 24, "unit": "%"}]}]}
